Results: PMC7056357
Where two headings read alike, the source gives them in different places.

Key:
[1] = target: CD4-mRFP (human) (UniProt P01730); assay: multicolour TIRF-dSTORM with interaction factor analysis
[2] = target: CCR5-mTFP1 (UniProt P51681)
[3] = target: T1, CXCR4-mTFP1 (human), P61073; details: remark: other sources report otherwise
T1 chain: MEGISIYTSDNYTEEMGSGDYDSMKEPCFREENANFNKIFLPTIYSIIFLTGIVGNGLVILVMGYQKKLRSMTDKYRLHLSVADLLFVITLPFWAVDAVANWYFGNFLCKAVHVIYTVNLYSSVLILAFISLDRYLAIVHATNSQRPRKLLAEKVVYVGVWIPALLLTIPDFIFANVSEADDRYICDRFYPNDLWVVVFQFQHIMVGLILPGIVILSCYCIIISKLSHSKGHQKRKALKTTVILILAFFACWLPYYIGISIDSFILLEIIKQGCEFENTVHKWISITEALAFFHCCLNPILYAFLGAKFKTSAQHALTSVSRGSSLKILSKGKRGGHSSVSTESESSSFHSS

[4] = target: T1, CXCR4-mTFP1 (human), P61073; assay: number and brightness; details: remark: other sources report otherwise
[5] = target: T2, CXCR4-eYFP (human), P61073; assay: multicolour TIRF-dSTORM with interaction factor analysis; details: remark: other sources report otherwise
T2 chain: T1 chain

UniProt P51681, sequence (P51681 whole entry): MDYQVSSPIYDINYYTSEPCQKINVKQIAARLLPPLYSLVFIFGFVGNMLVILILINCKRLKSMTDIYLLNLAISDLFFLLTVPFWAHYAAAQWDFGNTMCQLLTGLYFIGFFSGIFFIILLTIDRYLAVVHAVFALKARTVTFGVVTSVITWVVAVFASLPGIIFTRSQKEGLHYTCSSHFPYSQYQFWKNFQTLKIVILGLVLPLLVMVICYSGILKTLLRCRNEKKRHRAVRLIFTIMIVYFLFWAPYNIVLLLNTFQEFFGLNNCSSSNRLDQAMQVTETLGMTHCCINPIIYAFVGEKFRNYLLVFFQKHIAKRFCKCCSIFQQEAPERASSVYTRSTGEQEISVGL

With “HIV-1 JR-FL Env on HIV_(JR-FL) virions (complex)” the probability of 3 CD4 molecules engaged with 1 Env spike [1] was 0.36, the probability of 4 CD4 molecules engaged with 1 Env spike [1] was 0.1 and the CCR5 molecules bound to a single Env trimer [2] was 2.

B1: CXCR4-mTFP1, P61073 1-352 (receptor)
chain: T1 chain
Work on B1 yielded a stoichiometry N [3] of 2 and a stoichiometry N [4] of 2.

B2: CXCR4-eYFP, P61073 1-352 (receptor)
chain: T1 chain
For B2, the stoichiometry N [5] was 2.
